Data: PMC5752674, “Redox regulation of PEP activity during seedling establishment in Arabidopsis thaliana” (Nature Communications, 2018)
Values belong to the molecule of their own block, whether it stands above or below them.

Columns and labels:
[1] = target: PRIN2 in isolated chloroplasts of a 35S:PRIN2 line (Arabidopsis thaliana) (UniProt Q9XIK0); assay: non-reducing SDS-PAGE with immunoblot; protein extracts of isolated chloroplasts (35S:PRIN2 line; WT plants kept in light or 48 h in the dark) or of Arabidopsis cell culture (dark, light, light with 10 mM H2O2, DCMU, MV, high light), nonreducing conditions, anti-PRIN2 polyclonal antibody
[2] = target: PRIN2 Cys115Ser (C2S) in transgenic prin2-2 + C2S lines (Arabidopsis thaliana) (UniProt Q9XIK0); assay: SDS-PAGE with immunoblot; protein of transgenic prin2-2 lines with PRIN2 variants (Supplementary Figs. 4c and 5); conditions not shown
[3] = target: recombinant Arabidopsis PRIN2 WT (PLASTID REDOX …2), without the transit peptide (Arabidopsis thaliana) (UniProt Q9XIK0); assay: non-reducing SDS-PAGE; purified recombinant protein (1 ug), untreated (air), with 5 mM DTT or other DTT concentrations, or with 2 mM H2O2; 15% polyacrylamide, nonreducing conditions, Coomassie Brilliant Blue; disulfide-linked dimer to monomers
[4] = target: endogenous PRIN2 of Arabidopsis (Arabidopsis thaliana (endogenous in Col-0 plants and cell culture)) (UniProt Q9XIK0); assay: non-reducing SDS-PAGE with immunoblot; protein extracts of isolated chloroplasts (35S:PRIN2 line; WT plants kept in light or 48 h in the dark) or of Arabidopsis cell culture (dark, light, light with 10 mM H2O2, DCMU, MV, high light), nonreducing conditions, anti-PRIN2 polyclonal antibody
[5] = target: T1, PRIN2 (PLASTID REDOX INSENSITIVE2), recombinant without transit peptide (Arabidopsis thaliana) (UniProt Q9XIK0); assay: competition EMSA; conditions: EMSA with 3 ug PRIN2 per reaction; buffer, salt, pH and temperature not given in the material
T1 sequence: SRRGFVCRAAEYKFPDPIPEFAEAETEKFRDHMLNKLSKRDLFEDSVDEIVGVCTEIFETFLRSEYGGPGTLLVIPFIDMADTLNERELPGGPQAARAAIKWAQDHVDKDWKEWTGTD

[6] = target: the molecule itself; assay: SDS-PAGE with immunoblot; input protein extracts of protoplasts transformed with PRIN2-cMyc or TRXz-HA, probed with anti-cMyc or anti-HA; whether reducing or not is not stated
[7] = target: T2, PRIN2 (PLASTID REDOX …2), recombinant without transit peptide (Arabidopsis thaliana, UniProt Q9XIK0 62-179); assay: competition EMSA; 50-fold excess over labeled ycf1; EMSA with 3 ug PRIN2 per reaction; buffer, salt, pH and temperature not given in the material; conditions: protein: recombinant, tags: His (pET-His1a), label: none, blunt
T2 sequence: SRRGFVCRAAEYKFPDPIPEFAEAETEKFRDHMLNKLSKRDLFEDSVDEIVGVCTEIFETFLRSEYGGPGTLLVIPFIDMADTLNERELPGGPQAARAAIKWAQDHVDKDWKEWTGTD

[8] = target: T2, PRIN2 (PLASTID REDOX …2), recombinant …; assay: EMSA; 3 ug protein; competed by 50-fold unlabeled ycf1; EMSA with 3 ug PRIN2 per reaction; buffer, salt, pH and temperature not given in the material; conditions: tags: His (pET-His1a), label: biotin 3' end (Biotin-14-dCTP), blunt

stoichiometry N [1]: 2
Molecule: PRIN2 in isolated chloroplasts of a 35S:PRIN2 line (from UniProt Q9XIK0 70-179) (natural protein)

stoichiometry N [2]: 2
Molecule: PRIN2 Cys115Ser (C2S) in transgenic prin2-2 + C2S lines (from UniProt Q9XIK0 70-179) (natural protein)

stoichiometry N [3]: 2
Molecule: recombinant Arabidopsis PRIN2 WT (PLASTID REDOX …2), without the transit peptide (from UniProt Q9XIK0 70-179) (natural protein)

stoichiometry N [4]: 2
Molecule: endogenous PRIN2 of Arabidopsis (from UniProt Q9XIK0 70-179) (natural protein)

Molecule: GAAACAGTATAACATGACTTATATAGCCATGTCAACCAATGTAAAATGGATAAGATCCTTTTAGTTTAGATTCATAAAAAATTTTTTGTAATCGATGAAATAAATTAGAAGCGAATCCACATACATAGAAATAGAATTGCTCTAGGAATATTTTTTCCAAATCATATGAATACGATTGAATACGATCCGTAGTGGGT (double strand) [psbA promoter competitor (psbA_197)]
binding [5]: binds

B1: TRXz-HA (full-length Thioredoxin z fused to an HA tag) (natural protein, Arabidopsis thaliana, UniProt Q9M7X9 82-183, looked up)
chain: AQELQELVKGDRKVPLIVDFYATWCGPCILMAQELEMLAVEYESNAIIVKVDTDDEYEFARDMQVRGLPTLFFISPDPSKDAIRTEGLIPLQMMHDIIDNEM
notes: also called pRT104-TRXz-HA; source: Arabidopsis Ler suspension culture protoplasts, transiently transformed, in protein extract
stoichiometry N [6]: 2

B2: PRIN2-cMyc (full-length PRIN2 fused to a cMyc tag) (natural protein, Arabidopsis thaliana, UniProt Q9XIK0 68-179, looked up)
chain: CRAAEYKFPDPIPEFAEAETEKFRDHMLNKLSKRDLFEDSVDEIVGVCTEIFETFLRSEYGGPGTLLVIPFIDMADTLNERELPGGPQAARAAIKWAQDHVDKDWKEWTGTD
notes: also called pRT104-PRIN2-cMyc; source: Arabidopsis Ler suspension culture protoplasts, transiently transformed, in protein extract
stoichiometry N [6]: 2

B3: clpP promoter competitor (dsDNA)
DNA 1: CGAAACCCCAATTTTACGTTTCCACATCAAAGTGAAATAGAGAA
DNA 2: TTCTCTATTTCACTTTGATGTGGAAACGTAAAATTGGGGTTTCG
binding result [7]: binds

B4: psaA U region competitor (dsDNA)
DNA 1: TTTTTTAATTATAAAAAAGGGTCCGTTGAGCACCCTATCCAT
DNA 2: ATCCATAGGGTGCTCAACGGACCCTTTTTTATAATTAAAAAA
binding result ([7]; as printed, strands mismatch near the 3' end of strand 1 (possible misprint)): binds

B5: rpoB promoter competitor (dsDNA)
DNA 1: TATGGTATGCAATCGAATTGGAATATGTAATATCATAGGTGAAAATGAAATTAC
DNA 2: GTAATTTCATTTTCACCTATGATATTACATATTCCAATTCGATTGCATACCATA
binding result [7]: binds

B6: ycf1 promoter probe (dsDNA)
DNA 1: CCATTCATTTAATATCCCTTTGGTGTCATTGACATAAGAGAT
DNA 2: ATCTCTTATGTCAATGACACCAAAGGGATATTAAATGAATGG
binding result [8]: binds
